Source: paper PMC6597733, “Characterisation of a solvent-tolerant haloarchaeal (R)-selective transaminase isolated from a Triassic period salt mine” (Applied Microbiology and Biotechnology, 2019)

Substrate: O=C(O)CCC(=O)C(=O)O
Test: purified protein
Format: biochemical, Halorubrum sp. CSM-61
Settings: α-KG varied 1-20 mM, amino donor (R)-methylbenzylamine co-varied at 5 equivalents, 0.5 mM PLP, phosphate pH 8.0, 1 M KCl, 30% DMF, 45 °C per general assay, the varied substrate is named only in Method

B1: BC61-TAm (Halorubrum sp. CSM-61) (protein)
chain: MGFDEMDVDTIWKNGEFLDWEDATTHVLTHALHYGSGVFEGVRCYDTEQGPAVFRWDEHLDRLFDSAKMYDLDIEHSREEITEATMELLRRQDLESCYIRPIAYYGYDSLGVSPKECPTDLVVAAWPWGAYLGEEALEDGVDVMVSSWRKHASSQVPTNVKTTGLYVNSMLAGEEARRNGYVEAIVLNKEGNVAEGPGENVFMVNDGEIYTTGPAQSILEGITRDTVIELAEERGYTVHDEAVVSRGQLYTADELFFTGSAAEVTPIRSVDDTEIGAGTRGPVTEELQSAFFDLVERRTDAHDDWFTYV
notes: full-length gene (930 bp), N-terminal 6xHis tag (pTA1228), expressed in Haloferax volcanii H1424, IMAC purified, 34-35 kDa
Q: For B1, which Km is on record?
A: 3.37 mM

Q: And the kcat?
A: 2.52 min⁻¹
